Measurements as given in paper PMC6642173, “Acetylation regulates ribonucleotide reductase activity and cancer cell growth” (Nature Communications, 2019).
Numbering of substitutions follows the chain as printed. In names and notes the source's numbering stands.

B1: Recombinant His6-tagged WT RRM2 (natural protein, human, UniProt P31350 1-389, looked up)
chain: MLSLRVPLAPITDPQQLQLSPLKGLSLVDKENTPPALSGTRVLASKTARRIFQEPTEPKTKAAAPGVEDEPLLRENPRRFVIFPIEYHDIWQMYKKAEASFWTAEEVDLSKDIQHWESLKPEERYFISHVLAFFAASDGIVNENLVERFSQEVQITEARCFYGFQIAMENIHSEMYSLLIDTYIKDPKEREFLFNAIETMPCVKKKADWALRWIGDKEATYGERVVAFAAVEGIFFSGSFASIFWLKKRGLMPGLTFSNELISRDEGLHCDFACLMFKHLVHKPSEERVREIIINAVRIEQEFLTEALPVKLIGMNCTLMKQYIEFVADRLMLELGFSKVFRVENPFDFMENISLEGKTNFFEKRVGEYQRMGVMSSPTENSFTLDADF
notes: RRM2, human; Purification may be described in the Supplementary Methods; also called recombinant RRM2 WT; source: E. coli, purified
B2: Recombinant K95R RRM2 (natural protein, human, UniProt P31350 1-389, looked up)
chain: B1 chain with K95R
notes: RRM2, human, with K95R; Probably His6-tagged and made in E. coli like the WT and K95Q proteins; source: recombinant, purified

Molecular target: the molecule itself
Assay: cross-linking; purified recombinant RRM2 proteins cross-linked with 2 mM disuccinimidylsuberate (DSS), SDS-PAGE

Row | Protein | stoichiometry N
1 | B1 | 2
2 | B2 | 2
